Data as given in patent publication US20210070829A1 (ZHEJIANG DOER BIOLOGICS, published 2021).
Where two headings read alike, the source gives them in different places.

B1: C227 L12F5L14M4 (Fc fusion)
chain: HSQGTFTSDYSKYLDSQAAQDFVQWLMNTGPSSGAPPSGGGGAGGGGAGGGGAAERKCCVECPPCPAPPVAGPSVFLFPPKPKDTLMISRTPEVTCVVVDVSHEDPEVQFNWYVDGVEVHNAKTKPREEQFNSTFRVVSVLTVVHQDWLNGKEYKCKVSNKGLPSSIEKTISKTKGQPREPQVYTLPPSREEMTKNQVSLTCLVKGFYPSDIAVEWESNGQPENNYKTTPPMLDSDGSFFLYSKLTVDKSRWQQGNVFSCSVMHEALHNHYTQKSLSLSPGGGGGAGGGGAGGGGASHPIPDSSPLLQFGGQVRQRYLYTDDAQQTEAHLEIREDGTVGGAADQSPESLLQLKALKPGVIQILGVKTSRFLCQRPDGALYGSLHFDPEACSFRERLLEDGYNVYQSEAHGLPLHCPGNKSPHRDPAPRGPCRFLPLPGLPPALPEPPGILAPQPPDVGSSDPLAMVGGSQGRSPSYES
B2: C225L10F10 (Fc fusion)
chain: HSQGTFTSDYSKYLDERAAQDFVQWLMNTGPSSGAPPPSGGGGAGGGGAGGGGAESKYGPPCPPCPAPEAAGGPSVFLFPPKPKDTLMISRTPEVTCVVVDVSQEDPEVQFNWYVDGVEVHNAKTKPREEQFASTYRVVSVLTVLHQDWLNGKEYKCKVSNKGLPSSIEKTISKAKGQPREPQVYTLPPSQEEMTKNQVSLTCLVKGFYPSDIAVEWESNGQPENNYKTTPPVLDSDGSFFLYSRLTVDKSRWQEGNVFSCSVMHEALHNHYTQKSLSLSLG
B3: C711 L13F5L10M4 (Fc fusion)
chain: HSQGTFTSDYSKYLDSQAAQDFVQWLMNTKRNRNNIAGGGGSGGGGSGGGGSAERKCCVECPPCPAPPVAGPSVFLFPPKPKDTLMISRTPEVTCVVVDVSHEDPEVQFNWYVDGVEVHNAKTKPREEQFNSTFRVVSVLTVVHQDWLNGKEYKCKVSNKGLPSSIEKTISKTKGQPREPQVYTLPPSREEMTKNQVSLTCLVKGFYPSDIAVEWESNGQPENNYKTTPPMLDSDGSFFLYSKLTVDKSRWQQGNVFSCSVMHEALHNHYTQKSLSLSPGGGGGAGGGGAGGGGAHPIPDSSPLLQFGGQVRQRYLYTDDAQQTEAHLEIREDGTVGGAADQSPESLLQLKALKPGVIQILGVKTSRFLCQRPDGALYGSLHFDPEACSFRERLLEDGYNVYQSEAHGLPLHCPGNKSPHRDPAPRGPCRFLPLPGLPPALPEPPGILAPQPPDVGSSDPLAMVGGSQGRSPSYES
B4: C495 L9F10L9M1 (Fc fusion)
chain: HSQGTFTSDYSKYLDEQAAQDFVQWLMNGGPSSGAPPPSGGGGSGGGGSGGGGSESKYGPPCPPCPAPEAAGGPSVFLFPPKPKDTLMISRTPEVTCVVVDVSQEDPEVQFNWYVDGVEVHNAKTKPREEQFASTYRVVSVLTVLHQDWLNGKEYKCKVSNKGLPSSIEKTISKAKGQPREPQVYTLPPSQEEMTKNQVSLTCLVKGFYPSDIAVEWESNGQPENNYKTTPPVLDSDGSFFLYSRLTVDKSRWQEGNVFSCSVMHEALHNHYTQKSLSLSLGGGGGSGGGGSGGGGSHPIPDSSPLLQFGGQVRQRYLYTDDAQQTEAHLEIREDGTVGGAADQSPESLLQLKALKPGVIQILGVKTSRFLCQRPDGALYGSLHFDPEACSFRERLLEDGYNVYQSEAHGLPLHLPGNKSPHRDPAPRGPARFLPLPGLPPALPEPPGILAPQPPDVGSSDPLSMVGGSQGRSPSYES
B5: C225 L10F10L14M2 (Fc fusion)
chain: HSQGTFTSDYSKYLDERAAQDFVQWLMNTGPSSGAPPPSGGGGAGGGGAGGGGAESKYGPPCPPCPAPEAAGGPSVFLFPPKPKDTLMISRTPEVTCVVVDVSQEDPEVQFNWYVDGVEVHNAKTKPREEQFASTYRVVSVLTVLHQDWLNGKEYKCKVSNKGLPSSIEKTISKAKGQPREPQVYTLPPSQEEMTKNQVSLTCLVKGFYPSDIAVEWESNGQPENNYKTTPPVLDSDGSFFLYSRLTVDKSRWQEGNVFSCSVMHEALHNHYTQKSLSLSLGGGGGAGGGGAGGGGASHPIPDSSPLLQFGGQVRQRYLYTDDAQQTEAHLEIREDGTVGGAADQSPESLLQLKALKPGVIQILGVKTSRFLCQRPDGALYGSLHFDPEACSFRERLLEDGYNVYQSEAHGLPLHCPGNKSPHRDPAPRGPCRFLPLPGLPPALPEPPGILAPQPPDVGSSDPLSMVGGSQGRSPSYES
B6: C240 L13F10L9M2 (Fc fusion)
chain: HSQGTFTSDYSKYLDERAAQDFVQWLMNGGPSSGAPPPSGGGGSGGGGSGGGGSAESKYGPPCPPCPAPEAAGGPSVFLFPPKPKDTLMISRTPEVTCVVVDVSQEDPEVQFNWYVDGVEVHNAKTKPREEQFASTYRVVSVLTVLHQDWLNGKEYKCKVSNKGLPSSIEKTISKAKGQPREPQVYTLPPSQEEMTKNQVSLTCLVKGFYPSDIAVEWESNGQPENNYKTTPPVLDSDGSFFLYSRLTVDKSRWQEGNVFSCSVMHEALHNHYTQKSLSLSLGGGGGSGGGGSGGGGSHPIPDSSPLLQFGGQVRQRYLYTDDAQQTEAHLEIREDGTVGGAADQSPESLLQLKALKPGVIQILGVKTSRFLCQRPDGALYGSLHFDPEACSFRERLLEDGYNVYQSEAHGLPLHCPGNKSPHRDPAPRGPCRFLPLPGLPPALPEPPGILAPQPPDVGSSDPLSMVGGSQGRSPSYES
B7: C462 L13F10L9M4 (Fc fusion)
chain: HSQGTFTSDYSKYLDEEAAQDFVQWLMNGGPSSGAPPPSGGGGSGGGGSGGGGSAESKYGPPCPPCPAPEAAGGPSVFLFPPKPKDTLMISRTPEVTCVVVDVSQEDPEVQFNWYVDGVEVHNAKTKPREEQFASTYRVVSVLTVLHQDWLNGKEYKCKVSNKGLPSSIEKTISKAKGQPREPQVYTLPPSQEEMTKNQVSLTCLVKGFYPSDIAVEWESNGQPENNYKTTPPVLDSDGSFFLYSRLTVDKSRWQEGNVFSCSVMHEALHNHYTQKSLSLSLGGGGGSGGGGSGGGGSHPIPDSSPLLQFGGQVRQRYLYTDDAQQTEAHLEIREDGTVGGAADQSPESLLQLKALKPGVIQILGVKTSRFLCQRPDGALYGSLHFDPEACSFRERLLEDGYNVYQSEAHGLPLHCPGNKSPHRDPAPRGPCRFLPLPGLPPALPEPPGILAPQPPDVGSSDPLAMVGGSQGRSPSYES
B8: C382 L13F10L9M1 (Fc fusion)
chain: HSQGTFTSDYSKYLDSQAAQDFVQWLMNGGPSSGAPPPSGGGGSGGGGSGGGGSAESKYGPPCPPCPAPEAAGGPSVFLFPPKPKDTLMISRTPEVTCVVVDVSQEDPEVQFNWYVDGVEVHNAKTKPREEQFASTYRVVSVLTVLHQDWLNGKEYKCKVSNKGLPSSIEKTISKAKGQPREPQVYTLPPSQEEMTKNQVSLTCLVKGFYPSDIAVEWESNGQPENNYKTTPPVLDSDGSFFLYSRLTVDKSRWQEGNVFSCSVMHEALHNHYTQKSLSLSLGGGGGSGGGGSGGGGSHPIPDSSPLLQFGGQVRQRYLYTDDAQQTEAHLEIREDGTVGGAADQSPESLLQLKALKPGVIQILGVKTSRFLCQRPDGALYGSLHFDPEACSFRERLLEDGYNVYQSEAHGLPLHLPGNKSPHRDPAPRGPARFLPLPGLPPALPEPPGILAPQPPDVGSSDPLSMVGGSQGRSPSYES
B9: C627 L12F10L9M6 (Fc fusion)
chain: HSQGTFTSDYSKQMDSQRAQDFVQWLMNGGPSSGAPPPSGGGGAGGGGAGGGGAAESKYGPPCPPCPAPEAAGGPSVFLFPPKPKDTLMISRTPEVTCVVVDVSQEDPEVQFNWYVDGVEVHNAKTKPREEQFASTYRVVSVLTVLHQDWLNGKEYKCKVSNKGLPSSIEKTISKAKGQPREPQVYTLPPSQEEMTKNQVSLTCLVKGFYPSDIAVEWESNGQPENNYKTTPPVLDSDGSFFLYSRLTVDKSRWQEGNVFSCSVMHEALHNHYTQKSLSLSLGGGGGSGGGGSGGGGSHPIPDSSPLLQFGGQVRQRYLYTDDAQQTEAHLEIREDGTVGGAADQSPESLLQLKALKPGVIQILGVKTSRFLCQRPDGALYGSLHFDPEACSFRERLLEDGYNVYQSEAHGLPLHCPGNKSPHRDPAPRGPCRFLPLPGLPPALPEPPGILAPQPPDVGSSDPLSMVEPSQGRSPSYAS
B10: C462 L10F5L10M3 (Fc fusion)
chain: HSQGTFTSDYSKYLDEEAAQDFVQWLMNGGPSSGAPPPSGGGGAGGGGAGGGGAERKCCVECPPCPAPPVAGPSVFLFPPKPKDTLMISRTPEVTCVVVDVSHEDPEVQFNWYVDGVEVHNAKTKPREEQFNSTFRVVSVLTVVHQDWLNGKEYKCKVSNKGLPSSIEKTISKTKGQPREPQVYTLPPSREEMTKNQVSLTCLVKGFYPSDIAVEWESNGQPENNYKTTPPMLDSDGSFFLYSKLTVDKSRWQQGNVFSCSVMHEALHNHYTQKSLSLSPGGGGGAGGGGAGGGGADSSPLLQFGGQVRQRYLYTDDAQQTEAHLEIREDGTVGGAADQSPESLLQLKALKPGVIQILGVKTSRFLCQRPDGALYGSLHFDPEACSFRELLLEDGYNVYQSEAHGLPLHCPGNKSPHRDPAPRGPCRFLPLPGLPPALPEPPGILAPQPPDVGSSDPLAMVGPSQGRSPSYAS
B11: C788 L1F5L5M5 (Fc fusion)
chain: HSQGTFTSDYSKQMDSQRAQDFVQWLMNTKRNRNNIAGGGGSERKCCVECPPCPAPPVAGPSVFLFPPKPKDTLMISRTPEVTCVVVDVSHEDPEVQFNWYVDGVEVHNAKTKPREEQFNSTFRVVSVLTVVHQDWLNGKEYKCKVSNKGLPSSIEKTISKTKGQPREPQVYTLPPSREEMTKNQVSLTCLVKGFYPSDIAVEWESNGQPENNYKTTPPMLDSDGSFFLYSKLTVDKSRWQQGNVFSCSVMHEALHNHYTQKSLSLSPGGGGGSGGGGSHPIPDSSPLLQFGGQVRQRYLYTDDAQQTEAHLEIREDGTVGGAEDQSPESLLQLKALKPGVIQILGVKTSRFLCQRPDGALYGSLHFDPEACSFRERLLEDGYNVYQSEAHGLPLHCPGNKSPHRDPAPRGPCRFLPLPGLPPALPEPPGILAPQPPDVGSSDPLSMVGGSQGRSPSYES

Legend:
Test in all cases: cell-based or functional assay
[1] = target: FGFR/β-Klotho receptor complex
Glucagon receptor [2] = target: Glucagon receptor
human GLP-1 receptor [3] = target: T1, human GLP-1 receptor (human, UniProt P43220 24-463)
Glucagon receptor [4] = target: Glucagon receptor; remark: listed apart in the source
human GLP-1 receptor [5] = target: T1, human GLP-1 receptor; remark: listed apart in the source

Binder	FGF21 activity EC50 (luciferase reporter) [1] [nM]	GCGR agonist activity EC50 (luciferase reporter) (Glucagon receptor [2]) [nM]	GLP-1R agonist activity EC50 (luciferase reporter) (human GLP-1 receptor [3]) [nM]	GCGR agonist activity EC50 (luciferase reporter) (Glucagon receptor [4]) [nM]	GLP-1R agonist activity EC50 (luciferase reporter) (human GLP-1 receptor [5]) [nM]
B1	0.71	1.38	1.55		
B2				1.39	1.47
B3	0.75	9.55	10.8		
B4	0.84	1.43	1.21		
B5	0.85	1.17	1.42		
B6	0.89	1.25	1.21		
B7	1.33	1.23	1.11		
B8	0.76	1.27	1.13		
B9	1.11	1.69	1.48		
B10	1.37	1.22	1.23		
B11	0.88	7.64	10.6		
